# Measured values taken from the nanobody polyreactivity screen of Harvey et al. (2022).
# Assay: yeast display, Sf9 membrane polyspecificity reagent, FACS + sequencing; frameworks hold sequencing errors
# Summary of the method: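 After 36–48 hours of galactose induction, yeast (Saccharomyces cerevisiae BJ5465) displaying a synthetic nanobody library were stained at 4 °C for 1 hour with 10% biotinylated, detergent-solubilized Sf9 membrane reagent. Streptavidin microbeads enriched the stained cells before FACS sorting into low and high (top ~1%) gates on anti-HA and streptavidin fluorescence. Each clone's polyreactivity label reflects its gate of origin.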
row,Sequence,polyreactivity (PSR sort gate)
1,QVQLVESGGGLVQAGGSLRLSCAASGSTFTRYAMGWYRQAPGKERELVAGITGRGGSTYYADSVKGRFTISRDNAKNTVYLQMNSLKPEDTAVYYCNKRRRGVTTYDYWGQGTQVTVSS,high polyreactivity
2,QVQLVESGGGLVQAGGSLRLSCAASGSTFTRYAMGWYRQAPGKERELVASISRSGNTYYADSVKGRFTISRDNAKNTVYLQMNSLKPEDTAVNYCAAKRKSYYSYNFDYWGQGTQVTVSS,high polyreactivity
3,QVQLVESGGGLVQAGGSLRLSCAASGSTFTSYAMGWYRQAPGKEREFVAAISQSSGSTYYADSVKWSFTISRDNAKNTVYLQMNSLKPEDTAVYYCAAKGRIRYGYGFDYWGQGTQVTVSS,high polyreactivity
4,QVQLVESGGGLVQAGGSLRLSCAASGSTFTSYAMGWYRQAPGKERELVAAISKSGGSTNYADSVKGRFTISRDNAKNTVYLQMNSLKPEDTAVYYCAALGIGSYRRYSGYDYWGQGTQVTVSS,low polyreactivity
5,QVQLVESGGGLVQAGGSLRLSCAASGSTFTSYAMGWYRQAPGKERELVAAISKSGGSTYYADSVKGRFTISRDNAKNTVYLQMNSLKPEDTAVYYCAKYIAYYGYVPSPWDHPGDDYWGQGTQVTVSS,low polyreactivity
6,QVQLVESGGGLVQAGGSLRLSCAASGSTFTSYAMGWYRQAPGKERELVAAISRSGGRTYYADSVKGRFTISRDNAKYTVYLQMNSLKPEDTAVYYCNAASLSKSDYWGQGTQVTVSS,high polyreactivity
7,QVQLVESGGGLVQAGGSLRLSCAASGSTFTTNAMGWYRQAPGKERELVATISRGGSTYYADSVKGRFTISRDNAKNTVYIQMNRLKPEDTAVYYCATDVQVPGIGRSVYAYEYWGQVTQVTVSS,low polyreactivity
8,QVQLVESGGGLVQAGGSLRLSCAASGSTFTTYVMGWYRQAPGKERELVAAISRRGGRTYYADSVKGRFTISRDNAKNTVYLQMNSLKPEDTAVYYCNKVYPTYYYYRGGPTEYDYWGQGTQVTVSS,high polyreactivity
9,QVQLVESGGGLVQAGGSLRLSCAASGSTFTVNAMGWYRQAPGKERELVAAINWSGGSTYYADSVKGRFTISRDNAKNTVYLQMNSLKPEDTAVYYCNKDREPYGYWSFDYWGQGTQVTVSS,low polyreactivity
10,QVQLVESGGGLVQAGGSLRLSCAASGSTFTVNDMGWYRQAPGKERELVAAITQRDGRTFYADSVKGRFTISRDNAKNTVYLQINSLKPEDTGVYYCAADYGWYTYGDYDYWGQGTQVTVSS,low polyreactivity
11,QVQLVESGGGLVQAGGSLRLSCAASGSTFTVNGMGWYRQAPGKERELVASITWSGGSTYYADSVKGRFTISRDNAKISVYLHMTSLIPEDTAVYYCAADEKLYITGYDYWGQGTQVTVSS,low polyreactivity
12,QVQLVESGGGLVQAGGSLRLSCAASGSTFTVYAMGWYRQAPGKERELVAAITNGGRTYYADSVKGRFTISRDNAKNTVYLQMNSLKPEDTAVYYCAADVYYDDYLYDYWGQGTQVTVSS,high polyreactivity
13,QVQLVESGGGLVQAGGSLRLSCAASGSTFTVYDMGWYRQAPGKERELVAGISRRGSSTYYADSVKGRFTISRDNAKNTVYLQMNSLKPEDTAVYYCAARGAVIRYPDKRYPVRYDYWGQGTQVTVSS,high polyreactivity
14,QVQLVESGGGLVQAGGSLRLSCAASGSTFTWNAMGWYRQAPGKERELVASITWGGGGTYYADSVKGRFTISRDNAKNTVYLQMNSLKPEDTAVYYCAAGLWSPAYRGGYYYWGQGTQVTVSS,low polyreactivity
15,QVQLVESGGGLVQAGGSLRLSCAASGSTFTWYAMGWYRQAPGKERELVADISYGGRSTYYADSVKGRFTISRDNAKNTVYLQMNSLKPEDTAVYYCAAESIPYYRYDYWGQGTQVTVSS,low polyreactivity
16,QVQLVESGGGLVQAGGSLRLSCAASGSTFTYNAMGWYRQAPGKERELVAAISSDGRTYYADSVKGRFTISRDNAKNTVYLQMNSLKPEDTAVYYCAAYFSGLTYGYYVAGYDYWGQGTQVTVSS,low polyreactivity
17,QVQLVESGGGLVQAGGSLRLSCAASGSTFTYNAMGWYRQAPGKERELVAAITGRGGSTYADSVKGRFTISRDNAKNTVYLQMNSLKPEDTAVYYCAARRPYGYRWHTSVPSLDYWGQGTQVTVSS,low polyreactivity
18,QVQLVESGGGLVQAGGSLRLSCAASGSTFTYNAMGWYRQAPGKERELVASISSGTTTYYADSVKGRFTISRDNAKNTVYLQMNSLKPDDTAVYYCNADIYTWFQIGGYQYDYWGQGTQVTVSS,low polyreactivity
19,QVQLVESGGGLVQAGGSLRLSCAASGSTFTYNAMGWYRQAPGKERELVASISSGTTTYYADSVKGRFTISRDNAKNTVYLQMNSLKPEDTAVYYCAALVSPDRGYYSYWYIYDYWGQGTQVTVSS,low polyreactivity
20,QVQLVESGGGLVQAGGSLRLSCAASGSTFTYNDMGWYRPAPGKERELVATIDSTTRTYYADSVKGRFTISRDNAKNSVYLQMNCLKPEDTAVYYCAADLTWAYFYYLFYRYDYWGQGTKVTVSS,low polyreactivity
21,QVQLVESGGGLVQAGGSLRLSCAASGSTFTYYAMGWYRQAPGKERELVAAIDFSGTSTYYADSVKGRFTISRDNAKNTVYLQMNSLQPEDTAVYYCAASQSWYWGGAQDNGEFGYWGQGTQVTVSS,low polyreactivity
22,QVQLVESGGGLVQAGGSLRLSCAASGSTFTYYAMGWYRQAPGKERELVAAISRSGGNTYYADSVKGRFTISRDNAKNTVYLQMNSLKKEDTAVYYCAAYRQVYGFDYWGQGTQVTVSS,high polyreactivity

row,Sequence,polyreactivity (PSR sort gate)
1,QVQLVESGGGLVQAGGSLRLSCAASGSTFTYYAMGWYRQAPGKERELVAAISRSGGNTYYADSVKGRFTISRDNAKNTVYLQMNSLKPEDTAVYYCAAYRQVYGFDYWGQGTQVTVSS,high polyreactivity
2,QVQLVESGGGLVQAGGSLRLSCAASGSTFTYYAMGWYRQAPGKERELVAAITGRGGRTYYADSVKGRFTISRDNAKNTVYLQMNSLKPEDTAVYYCARYPSSDTYWTKYDYWGQGTQVTVSS,high polyreactivity
3,QVQLVESGGGLVQAGGSLRLSCAASGSTFTYYAMGWYRQAPGKERELVAAITSGGSTYYADSVKGRFTISRDNAKNTVYLQMNSLKPEDTAVYYCNRGSWRYSTMEYWGQGTQVTVSS,high polyreactivity
4,QVQLVESGGGLVQAGGSLRLSCAASGSTFTYYTMGWYRQAPVKERELVAAISTSGGRTYDADSVKGRFTISRDYAKIPVFLQMNSLKPEDTAVYYCAAYSRTYDREFDYWGQGTQVTVSS,high polyreactivity
5,QVQLVESGGGLVQAGGSLRLSCAASGSTFVANVMGWYRQAPGKERELVAAINTNGGSTYYADSVKGRFTISRDNAKNTVYLQMNSLKPEDTAVYYCNKAWFRYWYGYWGQGTQVTVSS,low polyreactivity
6,QVQLVESGGGLVQAGGSLRLSCAASGSTFVDYALGWARQAPGKERELVAAISSSGGSTYYADSVKGRFTISRDTAKNTVYLQMNSLKPEDTAVYYCAARYDRSSKRNYWGQGTQVTVSS,low polyreactivity
7,QVQLVESGGGLVQAGGSLRLSCAASGSTFVDYAMGWYRQAPGKERELVAAMSSSGGSTYYADSVKGRFTISRDNAKNTVYLQMNSLKPEDTAVYYCAARYDRSSKRNYWGQGTQVTVSS,low polyreactivity
8,QVQLVESGGGLVQAGGSLRLSCAASGSTFVFYAMGWSREAPGKERELVAAITISGDITYYADSVKGRFTISRDNAKNTVYLQMNSLKPEDTAVYYWAVDGPIPDLHEYWGQGTQVTVSS,low polyreactivity
9,QVQLVESGGGLVQAGGSLRLSCAASGSTFVFYAMGWYRLAPGKDRELVAINSGGSTYYADSVKGRFTISRDNAKNTVYLQMNSLKPEDTAVYFCAKDPLRVWRFDYWGQGTQVTVSS,low polyreactivity
10,QVQLVESGGGLVQAGGSLRLSCAASGSTFVFYAMGWYRQAPGKERELVASISFRGGSTRYADSVKGRFTISRDNAKNTVYLQMNSLKPEDTAVYYCNARPFYRYYYWGQGTQVTVSS,high polyreactivity
11,QVQLVESGGGLVQAGGSLRLSCAASGSTFVGNAMGWYRQAPGKERELVAGISSGGSSNYADSVKGRFTISRDNAKNTVYLQMNSLKREDTAVYYCNAVPGVGEMDYWGQGTQVTVSS,low polyreactivity
12,QVQLVESGGGLVQAGGSLRLSCAASGSTFVGYAMGWYRLAPGKEREFVAAITRGGSTNYADSVKGRFTISRDNAKNTVYLQMNSLKPEDTAVYYCAARDRREGFNFDYCGQGTQVTVSS,low polyreactivity
13,QVQLVESGGGLVQAGGSLRLSCAASGSTFVGYAMVWYRQAPGKERELVAAISRSGGSTYYADSVKGRFTISRDNAKNTVYLQMNSLKPEDTAVYYCAAGARAFDDDFWGQGTQVNVSS,low polyreactivity
14,QVQLVESGGGLVQAGGSLRLSCAASGSTFVHYAMGWYRQAPGKERELVADITTGDITNYADSVKGRFTISRDNAKNTVYLQMNSLKPEDTAVYYCAVDHQNSPFHVGRDEYWGQGTQVTVSS,low polyreactivity
15,QVQLVESGGGLVQAGGSLRLSCAASGSTFVIYAMGLYTQAPGKERELVAAISRRTGSTYYADSVKGRFTISRYNAKNTVYLQMNSLKPEDTAVYYCAADYRYYTKYYGYLTYYYWGQGTQVTVSS,high polyreactivity
16,QVQLVESGGGLVQAGGSLRLSCAASGSTFVIYGKGWYRQAPGKERELVASISGSGGSTFYADSVKGRFTISRDNAKITVYLEMNSRKPEDTAVYYCAAAVGVGRSGGTYDYWGQGTQVTVSS,low polyreactivity
17,QVQLVESGGGLVQAGGSLRLSCAASGSTFVKYDMGWYRQAPGKERELVAAITTTGGSTYYADSVKGRFTISRDNAKNTVYLQMNSLIPEDTAVYYCATLVSASRSRRFGYEYWGQGTQVTVSS,high polyreactivity
18,QVQLVESGGGLVQAGGSLRLSCAASGSTFVLYAMGWYRQAPGKERELVAAINSAGSTNYADSVKGRFTISRDNAKNTVYLQMNSLNPEDTAVYYCAAEYYYSYVDRTYYIYDYWGQGTQVTVSS,high polyreactivity
19,QVQLVESGGGLVQAGGSLRLSCAASGSTFVNNAMGWSREARGKERELVAAIRSSDGRTYYADSVKGRFTISRDKAKNTVYLQMNSLKPEDTAVDYCATAVGTKYRTRIFEYYYWGQGTQVTVSS,high polyreactivity
20,QVQLVESGGGLVQAGGSLRLSCAASGSTFVNNAMGWYRQAPGKERELVASITVGGSTYYADSVKGRFTISRDNAKNTVYLQMNSLKPEDTAVYYCNVQYSYYASDYDYWGQGTQVTVSS,low polyreactivity
21,QVQLVESGGGLVQAGGSLRLSCAASGSTFVNYAMGWYRQAPGKERELVAAITRSGGNTYYADSVKGRFTISRDNAKNTVYLQMNSLKPEDTAVYDCAASFKQDIWYYYWGQGTQVTVSS,high polyreactivity
